Like-named read-outs stand apart in the source and are kept apart here. One block for each binder: values may come before it. Primed or numbered codes have the meaning given here. *: point of attachment. FITC = O=C1OC2(c3ccc(O)cc3Oc3cc(O)ccc32)c2ccc(NC(=S)*)cc21; FITC′ = fluorescein isothiocyanate label; Ahx = NCCCCCC(=O)O
B1: wild-type S100A4 (native noncovalent S100A4 dimer) (natural protein)
chain: not shown
B2: MIIA^1851–1960 (nonmuscle myosin-IIA heavy chain fragment) (domain or fragment, UniProt P35579 1851-1960, looked up)
chain: VDDERRNAEQYKDQADKASTRLKQLKRQLEEAEEEAQRANASRRKLQRELEDATETADAMNREVSSLKNKLRRGDLPFVVPRRMARKGAGDGSDEEVDGKADGAEAKPAE
B3: FITC-MIIA^1904–1927 (nonmuscle myosin-IIA 24mer peptide) (peptide)
peptide: {FITC-Ahx}-TETADAMNREVSSLKNKLRRGDLP-NH2
SMILES: CSCC[C@H](NC(=O)[C@H](C)NC(=O)[C@H](CC(=O)O)NC(=O)[C@H](C)NC(=O)[C@@H](NC(=O)[C@H](CCC(=O)O)NC(=O)[C@@H](NC(=O)CCCCCNC(=S)Nc1ccc2c(c1)C(=O)OC21c2ccc(O)cc2Oc2cc(O)ccc21)[C@@H](C)O)[C@@H](C)O)C(=O)N[C@@H](CC(N)=O)C(=O)N[C@@H](CCCNC(=N)N)C(=O)N[C@@H](CCC(=O)O)C(=O)N[C@H](C(=O)N[C@@H](CO)C(=O)N[C@@H](CO)C(=O)N[C@@H](CC(C)C)C(=O)N[C@@H](CCCCN)C(=O)N[C@@H](CC(N)=O)C(=O)N[C@@H](CCCCN)C(=O)N[C@@H](CC(C)C)C(=O)N[C@@H](CCCNC(=N)N)C(=O)N[C@@H](CCCNC(=N)N)C(=O)NCC(=O)N[C@@H](CC(=O)O)C(=O)N[C@@H](CC(C)C)C(=O)N1CCC[C@H]1C(N)=O)C(C)C

Experiments:
[1] = target: B3; assay: fluorescence polarisation
[2] = target: B1; assay: fluorescence polarisation
cross-linking = target: the molecule itself; assay: cross-linking
[3] = target: B1; assay: fluorescence polarisation; remark: listed apart in the source

Binder: B1
- stoichiometry N [1]: 1 S100A4 dimer per peptide

- Kd [2]: 1800 ± 200 nM
Binder: {FITC′-Ahx}-DAMNREVSSLKNKLRR-NH2 [FITC-MIIA^1908–1923 (nonmuscle myosin-IIA peptide, minimal S100A4 binding site)]

Binder: B2
- stoichiometry N (cross-linking): 2

Binder: B3
- Kd [3]: 260 ± 30 nM

— article PMC3227520 (Biochemistry, 2011)
